The results in this text go back to article PMC10926635, “Membrane-associated RING-CH 7 inhibits stem-like capacities of bladder cancer cells by interacting with nucleotide-binding oligomerization domain containing 1” (Cell & Bioscience, 2024).

In this assay the target is T1, HA-NOD1, purified protein (UniProt Q9Y239-1 1-953).
T1 construct: also called purified NOD1 protein; source: purified by Hangzhou Jingjie Biotechnology Co., Ltd
T1 sequence (looked up): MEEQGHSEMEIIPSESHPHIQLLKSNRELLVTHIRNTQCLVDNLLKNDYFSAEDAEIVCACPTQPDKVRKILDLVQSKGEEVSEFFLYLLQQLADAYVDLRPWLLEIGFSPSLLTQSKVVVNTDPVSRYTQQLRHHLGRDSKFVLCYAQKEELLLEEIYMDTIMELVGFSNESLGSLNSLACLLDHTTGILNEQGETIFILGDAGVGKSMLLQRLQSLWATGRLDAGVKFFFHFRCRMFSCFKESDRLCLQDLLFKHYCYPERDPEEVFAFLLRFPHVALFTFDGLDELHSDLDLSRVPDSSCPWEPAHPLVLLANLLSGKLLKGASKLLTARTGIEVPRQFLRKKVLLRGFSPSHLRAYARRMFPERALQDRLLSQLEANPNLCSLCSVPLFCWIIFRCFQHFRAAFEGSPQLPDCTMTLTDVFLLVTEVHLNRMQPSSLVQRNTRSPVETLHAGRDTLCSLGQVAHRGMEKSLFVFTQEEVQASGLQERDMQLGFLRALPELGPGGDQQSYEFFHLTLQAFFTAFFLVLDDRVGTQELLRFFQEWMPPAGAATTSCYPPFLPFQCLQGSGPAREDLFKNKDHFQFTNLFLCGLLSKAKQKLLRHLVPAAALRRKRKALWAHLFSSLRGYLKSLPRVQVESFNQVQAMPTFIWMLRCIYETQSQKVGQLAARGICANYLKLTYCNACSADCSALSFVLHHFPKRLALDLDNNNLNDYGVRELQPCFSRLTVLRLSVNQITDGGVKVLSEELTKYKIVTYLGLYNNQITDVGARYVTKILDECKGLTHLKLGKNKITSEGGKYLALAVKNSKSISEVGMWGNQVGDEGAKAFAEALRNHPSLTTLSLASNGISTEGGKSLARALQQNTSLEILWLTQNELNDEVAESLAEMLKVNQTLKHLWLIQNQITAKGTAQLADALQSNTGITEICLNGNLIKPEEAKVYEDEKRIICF
In words: co-IP; purified Flag-MARCH7 and HA-NOD1 proteins mixed; co-IP as for the cell lysates. The conditions noted are these: both partners purified.

B1: Flag-MARCH7-WT, purified protein (enzyme, UniProt Q9H992-1 1-704, looked up)
chain: MESKPSRIPRRISVQPSSSLSARMMSGSRGSSLNDTYHSRDSSFRLDSEYQSTSASASASPFQSAWYSESEITQGARSRSQNQQRDHDSKRPKLSCTNCTTSAGRNVGNGLNTLSDSSWRHSQVPRSSSMVLGSFGTDLMRERRDLERRTDSSISNLMDYSHRSGDFTTSSYVQDRVPSYSQGARPKENSMSTLQLNTSSTNHQLPSEHQTILSSRDSRNSLRSNFSSRESESSRSNTQPGFSYSSSRDEAPIISNSERVVSSQRPFQESSDNEGRRTTRRLLSRIASSMSSTFFSRRSSQDSLNTRSLNSENSYVSPRILTASQSRSNVPSASEVPDNRASEASQGFRFLRRRWGLSSLSHNHSSESDSENFNQESEGRNTGPWLSSSLRNRCTPLFSRRRREGRDESSRIPTSDTSSRSHIFRRESNEVVHLEAQNDPLGAAANRPQASAASSSATTGGSTSDSAQGGRNTGISGILPGSLFRFAVPPALGSNLTDNVMITVDIIPSGWNSADGKSDKTKSAPSRDPERLQKIKESLLLEDSEEEEGDLCRICQMAAASSSNLLIEPCKCTGSLQYVHQDCMKKWLQAKINSGSSLEAVTTCELCKEKLELNLEDFDIHELHRAHANEQAEYEFISSGLYLVVLLHLCEQSFSDMMGNTNEPSTRVRFINLARTLQAHMEDLETSEDDSEEDGDHNRTFDIA
notes: Membrane-associated RING-CH 7 (MARCH7); also called purified MARCH7 protein; source: purified by Hangzhou Jingjie Biotechnology Co., Ltd
Consider B1, for which the binding result is “binds”.
